Patent publication US20020159989

System: T1, recombinant MBP-peptide fusion protein (MBP-29)
T1 sequence: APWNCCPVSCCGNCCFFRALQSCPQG

Substance	enzymatic activity of MMP-9 ([3H]-labeled gelatin substrate, TCA soluble radioactivity)	enzymatic activity of MMP-9 after MMP-3 dependent activation ([3H]-labeled gelatin substrate)
proMMP-9 (CALBIOCHEM)	inhibited MMP-9 activity in a dose-dependent manner	
ProMMP-9 activated with MBP-MMP3		MMP-3 dependent activation of MMP was inhibited in a dose-dependent manner
